Measurements as given in patent publication US20110293620A1.

Legend:
[1] = target: recombinant PR1/HLA-A*0201 monomer (human); assay: SPR (BIAcore 3000), BB7.2 captured on an anti-mouse antibody surface, PR1/HLA-A2 monomer (HLA-A2/beta2m/peptide) as analyte in a concentration series, 25 C, first-order kinetic fit; the box below the panel and the text round it to 162 nM
[2] = target: recombinant PR1/HLA-A*0201 monomer (human); assay: SPR, Biacore; antibody captured on anti-mouse antibody surface, peptide/HLA-A2 as analyte

## BB7.2 murine monoclonal antibody (HLA-A*0201 allele-specific mouse IgG2a)
[1]
  Kd: 162 nM
[2]
  Kd: 162 nM
